Results as given in patent publication US7070788 (US Dept. of Health and Human Services, dated 2006).

B1: wild-type human thyroid stimulating hormone (ligand)
chain 1: not shown
chain 2: FCIPTEYTMHIERRECAYCLTINTTICAGYCMTRDINGKLFLPKYALSQDVCTYRDFIYRTVEIPGCPLHVAPYFSYPVALSCKCGKCNTDYSDCIHEAIKTNYCTKPQKSY
B2: wild-type human chorionic gonadotropin (ligand)
chain 1: not shown
chain 2: SKEPLRPRCRPINATLAVEKEGCPVCITVNTTICAGYCPTMTRVLQGVLPALPQVVCNYRDVRFESIRLPGCPRGVNPVVSYAVALSCQCALCRRSTTDCGGPKDHPLTCDDPRFQDSSSSKAPPPSLPSPSRLPGPSDTPILPQ

Tests used:
[1] = target: human TSH receptor (CHO-JP09 cells) (human, UniProt P16473 21-764); experiment: cell-based or functional assay
[2] = target: hCG (LH/CG) receptor of MA-10 transformed murine Leydig cells (murine, UniProt P30730 27-700); experiment: cell-based or functional assay
Sequence of hCG (LH/CG) receptor of MA-10 transformed murine Leydig cells (P30730 27-700): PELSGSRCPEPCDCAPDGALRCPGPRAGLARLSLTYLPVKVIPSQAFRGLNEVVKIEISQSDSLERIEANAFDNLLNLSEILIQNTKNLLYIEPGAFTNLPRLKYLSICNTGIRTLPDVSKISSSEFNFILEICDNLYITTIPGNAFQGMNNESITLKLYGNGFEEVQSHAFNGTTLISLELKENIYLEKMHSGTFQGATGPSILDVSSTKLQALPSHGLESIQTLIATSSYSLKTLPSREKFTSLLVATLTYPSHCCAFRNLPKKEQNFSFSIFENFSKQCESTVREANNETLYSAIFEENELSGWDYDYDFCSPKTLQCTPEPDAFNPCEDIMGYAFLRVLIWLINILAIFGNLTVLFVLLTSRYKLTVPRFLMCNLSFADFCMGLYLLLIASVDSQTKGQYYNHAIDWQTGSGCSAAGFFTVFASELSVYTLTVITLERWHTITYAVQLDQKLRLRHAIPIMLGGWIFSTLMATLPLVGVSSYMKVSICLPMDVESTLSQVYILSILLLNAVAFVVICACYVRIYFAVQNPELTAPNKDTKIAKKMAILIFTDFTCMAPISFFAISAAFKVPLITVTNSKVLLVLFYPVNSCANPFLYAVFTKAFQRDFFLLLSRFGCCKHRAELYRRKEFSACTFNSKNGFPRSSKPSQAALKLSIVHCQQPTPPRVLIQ

Binder | cAMP stimulation in JP09 cells, EC50 [1] [ng/mL] | cAMP stimulation in JP09 cells, Relative potency (WT = 1) [1] | Progesterone synthesis in MA10 cells, EC50 [2] [ng/mL] | Progesterone synthesis in MA10 cells, Max (%) [2]
B1 | 6.7 | 1 fold (WT = 1) | – | –
B2 | – | – | 6.9 | 100 % of WT-hCG
